Biological target: T1, KpnDRT2 reverse transcriptase (Klebsiella pneumoniae)
T1 chain: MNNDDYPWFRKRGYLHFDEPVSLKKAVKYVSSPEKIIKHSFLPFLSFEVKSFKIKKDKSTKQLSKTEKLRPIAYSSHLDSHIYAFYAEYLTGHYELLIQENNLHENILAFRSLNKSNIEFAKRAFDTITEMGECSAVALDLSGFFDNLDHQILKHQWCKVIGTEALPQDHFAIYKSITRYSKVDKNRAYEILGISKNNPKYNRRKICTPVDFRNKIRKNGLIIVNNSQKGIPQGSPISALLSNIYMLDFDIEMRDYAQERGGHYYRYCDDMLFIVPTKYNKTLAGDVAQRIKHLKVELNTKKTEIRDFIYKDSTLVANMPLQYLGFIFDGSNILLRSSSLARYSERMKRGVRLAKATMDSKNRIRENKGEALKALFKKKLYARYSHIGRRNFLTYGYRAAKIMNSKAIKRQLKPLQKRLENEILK
Experiment: EMSA; 20 mM HEPES pH 7.5, 5 mM MgCl2, 200 mM NaCl, 37 C
Settings: tags: N-terminal His6-GST removed by TEV; C-terminal StrepII; stem-loops SL1-SL8
Method: To test binding of the ncRNA by the RT, the purified ncRNA was mixed with increasing amounts of the RT in reaction buffer (20 mM HEPES pH 7.5, 5 mM MgCl₂, 5% glycerol, 200 mM NaCl, and 1 mM DTT). Samples were incubated at 37° C. for 15 minutes and analyzed by electrophoretic mobility shift assay (EMSA). The shift in mobility at higher concentrations of RT enzyme indicates binding of the ncRNA by the RT (FIG. 14A).

B1: KpnDRT2 ncRNA WT (ssRNA)
RNA: GCCCUAAACAAAGGUUUAGGGGUAUUGUACAGGUUGUCAAGCCUCCCACAGGUCUUGGUGAAACCAAUCACUGUGACGACGGUAAGCAACACUUGGAUGAUAUUCAUAAUUGACUCCACGCUACUGAUUACAUUAUACAGCAUAUCUAACAUUUGCGGCGAGGUUCACAAUUUGUAUUUAGGUACUGAUUGUGGAUGAGAAGGUUGGAGAAAGACCACUUGGUUAAGCCGGAGGAUGUGUCCUAGAAUUGUCGCUAUUCUGUCAUCCUCCGGUUUUGCUAA
Q: Does B1 bind?
A: Result: binds
